The results in this text go back to patent US20040157296A1 (HESKA, published 2004).

In this assay the target is T1, Human CTLA4 Fc chimeric protein (human, UniProt P16410 37-162, limits assumed).
T1 construct: Bought from R&D Systems; Used at about 20 ug/ml; also called recombinant CTLA4 protein; not shown: human IgG Fc (detected with mouse anti human IgG Fc FITC)
T1 sequence (looked up): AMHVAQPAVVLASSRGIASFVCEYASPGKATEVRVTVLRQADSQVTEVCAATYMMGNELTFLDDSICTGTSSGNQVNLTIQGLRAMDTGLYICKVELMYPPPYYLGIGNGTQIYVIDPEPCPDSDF
The assay can be described thus: flow cytometry on L cell transfectants. The protocol: Recombinant cells L-pCMV-nFeB7-2₉₉₉, and L-pCMV-nFeB7-1₈₇₉, produced as described in Example 8, were tested for surface expression of feline B7-1 or B7-2 by determining if human CTLA4 will bind. Briefly, 1×10⁵ (per condition) L-pCMV-nFeB7-2₉₉₉ or L-pCMV-nFeB7-1₈₇₉ cells or, as a negative control, L cells transfected with the empty pCMV vector and the PMLBKTK plasmid (L-CMV) were incubated in phosphate buffered saline (PBS) containing 30% fetal bovine serum (FBS) for about 30 min on ice. The cells were then spun down and treated with the following:
Human CTLA4 Fc chimeric protein, available from R&D systems, Minneapolis, Minn., was used at about 20 μg/ml. Mouse anti human IgG Fe FITC, available from Sigma, was used at about 65 μg/ml. These reagents were diluted in PBS/5% FBS. All incubations were performed in about 100 μl for about 1 hr on ice with 3 washes of PBS/5% FBS in between each incubation. Cells were then analyzed on a flow cytometer (MoFlow Desk Top System, Cytomation, Ft Collins, Colo.) with the fluorescein gate set at 10¹.
A general note: A flow cytometer gives signals particle by particle.

B1: feline B7-2 protein expressed on L-pCMV-nFeB7-2999 recombinant L cells (PFeB7-2332) (ligand)
chain: VSSMKSQAYFNKTGELPCHFTNSQNISLDELVVFWQDQDKLVLYEIFRGKENPQNVHLKYKGRTSFDKDNWTLRLHNVQIKDKGTYHCFIHYKGPKGLVPMHQMSSDLSVLANFSQPEITVTSNRTENSGIINLTCSSIQGYPEPKEMYFQLNTENSTTKYDTVMKKSQNNVTELYNVSISLPFSVPEAHNVSVFCALKLETLEMLLSLPFNIDAQPKDKDPEQGHFLWIAAVLVMFVVFCGMVSFKTLRKRKKKQPGPSHECETIKRERKESKQTNERVPYHVPERSDEAQCINILKTASGDKSTTHF
notes: also called PFeB7-2309 (mature)
B1: the binding result is listed as “binds”.
